Laboratory results from PMC9440770.
Positions count from the first letter of the chain named. Names may count otherwise.

B1: human αX I-domain (residues Q129 to G319), wild type (domain or fragment)
chain: QEQDIVFLIDGSGSISSRNFATMMNFVRAVISQFQRPSTQFSLMQFSNKFQTHFTFEEFRRSSNPLSLLASVHQLQGFTYTATAIQNVVHRLFHASYGARRDAAKILIVITDGKKEGDSLDYKDVIPMADAAGIIRYAIGVGLAFQNRNSWKELNDIASKPSQEHIFKVEDFDALKDIQNQLKEKIFAIEG
B2: human αX I-domain I314G construct (domain or fragment)
chain: B1 chain with I186G

Target: fibrinogen (UniProt P02671)
Assay: SPR

UniProt P02671, sequence (P02671 36-866, chain 1 of 3): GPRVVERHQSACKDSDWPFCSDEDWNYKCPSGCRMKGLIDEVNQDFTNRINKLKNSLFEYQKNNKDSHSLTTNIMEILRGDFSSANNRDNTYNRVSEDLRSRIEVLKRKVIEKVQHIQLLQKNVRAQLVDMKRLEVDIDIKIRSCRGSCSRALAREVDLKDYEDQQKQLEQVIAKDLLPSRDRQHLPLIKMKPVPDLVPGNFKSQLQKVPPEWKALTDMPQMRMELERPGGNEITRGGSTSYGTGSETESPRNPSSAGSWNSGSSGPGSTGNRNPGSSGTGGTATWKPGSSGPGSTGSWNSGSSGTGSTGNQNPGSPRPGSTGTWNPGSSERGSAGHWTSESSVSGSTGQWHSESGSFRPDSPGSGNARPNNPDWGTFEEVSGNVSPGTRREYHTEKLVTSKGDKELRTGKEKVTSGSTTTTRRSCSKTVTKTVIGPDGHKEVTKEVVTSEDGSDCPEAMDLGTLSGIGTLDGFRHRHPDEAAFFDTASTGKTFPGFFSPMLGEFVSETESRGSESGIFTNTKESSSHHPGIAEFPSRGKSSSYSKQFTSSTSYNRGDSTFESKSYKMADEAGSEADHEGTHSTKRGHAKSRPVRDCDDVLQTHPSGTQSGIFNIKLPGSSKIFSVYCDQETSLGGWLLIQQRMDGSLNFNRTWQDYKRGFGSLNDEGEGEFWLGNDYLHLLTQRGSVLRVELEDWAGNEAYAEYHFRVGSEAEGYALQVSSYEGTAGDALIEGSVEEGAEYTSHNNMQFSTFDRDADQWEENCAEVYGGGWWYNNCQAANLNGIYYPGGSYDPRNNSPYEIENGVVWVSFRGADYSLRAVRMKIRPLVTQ
UniProt P02671, sequence (P02675 45-491, chain 2 of 3, further chain): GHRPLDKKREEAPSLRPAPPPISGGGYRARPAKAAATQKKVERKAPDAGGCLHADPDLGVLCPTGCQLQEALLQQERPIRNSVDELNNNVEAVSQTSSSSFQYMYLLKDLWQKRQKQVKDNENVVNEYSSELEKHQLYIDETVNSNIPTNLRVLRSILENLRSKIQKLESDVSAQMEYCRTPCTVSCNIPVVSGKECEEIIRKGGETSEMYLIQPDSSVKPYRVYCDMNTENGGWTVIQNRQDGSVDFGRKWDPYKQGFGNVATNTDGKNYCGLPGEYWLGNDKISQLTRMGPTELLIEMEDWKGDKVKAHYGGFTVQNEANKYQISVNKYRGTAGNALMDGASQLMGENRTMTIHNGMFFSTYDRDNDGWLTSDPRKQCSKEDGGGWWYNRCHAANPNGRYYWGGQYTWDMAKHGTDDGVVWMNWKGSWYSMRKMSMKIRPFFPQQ
UniProt P02671, sequence (P02679 27-453, chain 3 of 3, further chain): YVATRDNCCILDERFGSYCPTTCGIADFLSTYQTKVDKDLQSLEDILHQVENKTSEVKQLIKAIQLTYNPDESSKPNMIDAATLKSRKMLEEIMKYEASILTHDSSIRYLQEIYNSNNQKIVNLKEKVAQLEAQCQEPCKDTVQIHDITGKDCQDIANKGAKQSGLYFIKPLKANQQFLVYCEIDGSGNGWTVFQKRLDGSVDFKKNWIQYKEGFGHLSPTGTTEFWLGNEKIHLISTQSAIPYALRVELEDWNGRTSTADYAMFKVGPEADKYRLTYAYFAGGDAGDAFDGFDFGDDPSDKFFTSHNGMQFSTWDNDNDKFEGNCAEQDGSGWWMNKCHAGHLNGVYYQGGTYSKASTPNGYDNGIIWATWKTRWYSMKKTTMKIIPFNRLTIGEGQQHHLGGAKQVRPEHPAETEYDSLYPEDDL

Row | Binder | Kd
1 | B1 | 20 µM
2 | B2 | 100 µM
